Assays:
Experiment in all cases: purified protein
[1] = substrate: NC(=O)c1ccc[n+]([C@@H]2O[C@H](COP(=O)(O)OP(=O)(O)OC[C@H]3O[C@@H](n4cnc5c(N)ncnc54)[C@H](O)[C@@H]3O)[C@@H](O)[C@H]2O)c1; conditions: with L-galactose, 50 mM BICINE pH 8.0, 30 °C, varied: cofactor
[2] = substrate: O=C(O)[C@@H](O)[C@H](O)[C@H](O)[C@@H](O)CO; conditions: 0.5 mM NAD+, 50 mM phosphate pH 7.5, 30 °C
[3] = substrate: O=C(O)[C@@H](O)[C@H](O)[C@@H](O)[C@@H](O)CO; conditions: 0.5 mM NAD+, 50 mM phosphate pH 7.5, 30 °C
[4] = substrate: O=C1O[C@H]([C@@H](O)CO)[C@@H](O)[C@@H]1O; conditions: 2.5 mM MOPS pH 7.1, 0.2 M NaCl, 1% DMSO, 30 °C
[5] = substrate: C[C@H](O)[C@H]1OC(=O)[C@@H](O)[C@@H]1O; conditions: 2.5 mM MOPS pH 7.1, 0.2 M NaCl, 1% DMSO, 30 °C
[6] = substrate: O=C1O[C@@H](CO)[C@@H](O)[C@@H]1O; conditions: 2.5 mM MOPS pH 7.1, 0.2 M NaCl, 1% DMSO, 30 °C
[7] = substrate: C[C@H]1C[C@@H](O)[C@H](O)C(=O)O1; conditions: 2.5 mM MOPS pH 7.1, 0.2 M NaCl, 1% DMSO, 30 °C
[8] = substrate: O=C1O[C@H](CO)[C@@H](O)[C@@H]1O; conditions: 2.5 mM MOPS pH 7.1, 0.2 M NaCl, 1% DMSO, 30 °C
[9] = substrate: O=C1O[C@@H](CO)[C@H](O)[C@@H](O)[C@@H]1O; conditions: 2.5 mM MOPS pH 7.1, 0.2 M NaCl, 1% DMSO, 30 °C

B1: Bvu0219 (Phocaeicola vulgatus ATCC 8482) (protein)
chain: MNYNEIGKTGMRVSNLSFGASSLGGVFHDIREAEGIKAVYTAVENGMNFIDVSPYYGHYKAETVLGKALKEIPRDKYYLSTKVGRYGKDGVNTWDYSGKRATESVYESLDRLHIEYIDLINVHDVEFSDMNQVVNETLPALVELKKKGIVGHVGITDLQLENLKWIIDHSEPGTVESVLNFCHYCLNDEKLTDYLDYFESKNIGIINASPLSMGLLSQRGVPAWHPAPQSLVEACRKAVQHCLSKNYPIEKLAIQYSVSNPRIATTLFSSANPDNVLKNITYAEEPIDWNLVKEVQEIIGKQMRISWANS
Question: How did the Km [1] turn out when B1 was run?
Answer: 3000 ± 200 µM

Question: What about the kcat [1] of the same protein?
Answer: 25 ± 1 s⁻¹

Question: And the kcat/Km [1]?
Answer: 9000 ± 100 M⁻¹ s⁻¹

B2: Bvu0222 (Phocaeicola vulgatus ATCC 8482) (protein)
chain: MKAIQITAPSEMKVVDIEKPVLEPGEVLVKIKYVGFCGSDLNTFLGRNPMVKLPVIPGHEVGAVIEAVGKDVPDSLKPGMSVTVNPYTNCGKCASCRNGRVNACEHNETLGVQRNGAMCEYIALPWSKIIPAHRIPPRDCALIEPMSVGFHAVSRAQVTDIDIVMVIGCGMIGMGAIVRSALRGATVIAVDLDDEKLELAKRIGAHHTINSMTENVHECLTKITEGLGPDVVIEAVGSPATYVMAVNEVGFTGRVVCIGYAKSEVSFQTKYFVQKELDIRGSRNALPTDFRAVIRYMEQGTCPKNELISKVVKPEAAIQAMKEWAAAPGKVFRILVEFD
Question: What does the source list for B2?
Answer: Km [2]: 36 ± 3 µM; kcat [2]: 0.6 ± 0.1 s⁻¹; kcat/Km [2]: 17000 ± 1000 M⁻¹ s⁻¹; Km [3]: 510 ± 70 µM; kcat [3]: 0.2 ± 0.1 s⁻¹; kcat/Km [3]: 390 ± 60 M⁻¹ s⁻¹

B3: Bvu0220 (Phocaeicola vulgatus ATCC 8482) (protein)
chain: MMDFNIIDAHSHLWLRQDTEVNGLPIRTLTNGRSLFMGEERQMVPPFMIDGRNSAEVFLSNMDYAQVSAAVVTQEFIDGIQNEYLAKVSHKYPDRFFVCGMCEFRKPGYLQQAKELISSGFKAIKIPAHRLFLKEGRVMLNSDEMMEMFHYMQEKDIILSIDLADGDTQVQEMKEIIQEYPQLRIAIGHFGMVTTPHWQEQIKLARHKNVMIESGGITWLFNSEFYPFHGAVKAIKEAADLVGMDKLMWGSDYPRTITAITYKMSYDFILKTTEMTQEEKALFLGKNAERFYGFKNLISLPYIKNMSE
Question: What does the source list for B3?
Answer: Km [4]: 1950 ± 310 µM; kcat [4]: 34 ± 3 s⁻¹; kcat/Km [4]: 18000 ± 2000 M⁻¹ s⁻¹; Km [5]: 1320 ± 210 µM; kcat [5]: 23 ± 2 s⁻¹; kcat/Km [5]: 18000 ± 2000 M⁻¹ s⁻¹; Km [6]: 5500 ± 550 µM; kcat [6]: 5.3 ± 0.4 s⁻¹; kcat/Km [6]: 930 ± 40 M⁻¹ s⁻¹; Km [7]: 32 ± 4 µM; kcat [7]: 23 ± 1 s⁻¹; kcat/Km [7]: 720000 ± 80000 M⁻¹ s⁻¹; Km [8]: 1700 ± 140 µM; kcat [8]: 1 ± 0.1 s⁻¹; kcat/Km [8]: 500 ± 30 M⁻¹ s⁻¹; Km [9]: 500 ± 40 µM; kcat [9]: 38 ± 1 s⁻¹; kcat/Km [9]: 80000 ± 5000 M⁻¹ s⁻¹

Source: paper PMC4108180
